Target: ribosomal protein uS14 (Escherichia coli (endogenous in K-12 …, UniProt P0AG59 1-101))
Experiment: cryo-EM structure

B1: catalytically inactive mutant of RNase I (H55F/H133F) (enzyme)
chain: LALQAKQYGDFDRYVLALSWQTGFCQSQHDRNRNERDECRLQTETTNKADFLTVFGLWPGLPKSVAARGVDERRWMRFGCATRPIPNLPEARASRMCSSPETGLSLETAAKLSEVMPGAGGRSCLERYEYAKFGACFGFDPDAYFGTMVRLNQEIKESEAGKFLADNYGKTVSRRDFDAAFAKSWGKENVKAVKLTCQGNPAYLTEIQISIKADAINAPLSANSFLPQPHPGNCGKTFVIDKAGY
B1: binds.

— paper doi:10.1101/2024.07.29.605612 (bioRxiv, 2024)
